Assay results from US20260250318A1, “COMPOSITIONS AND METHODS FOR CROSSING THE BLOOD BRAIN BARRIER” (VOYAGER THERAPEUTICS, INC., priority 2022, published 2026).
Where two headings read alike, the source gives them in different places.

Key:
AAVR = target: T1, AAVR (Homo sapiens, UniProt Q8IZA0); type: cell-based; details: for Luciferase Activity (fold change relative to pCMV6 transfected cells) / Luciferase Activity (RLU): AAVR transfected cells; for Fold change in luciferase activity relative to the pCMV6 control cells: Table 35, Receptor AAVR; for Luciferase Activity (RLU): Table 30
T1 construct: expressed in transfected cells; host or cells: HEK 293T
T1 sequence (Q8IZA0 whole entry, looked up): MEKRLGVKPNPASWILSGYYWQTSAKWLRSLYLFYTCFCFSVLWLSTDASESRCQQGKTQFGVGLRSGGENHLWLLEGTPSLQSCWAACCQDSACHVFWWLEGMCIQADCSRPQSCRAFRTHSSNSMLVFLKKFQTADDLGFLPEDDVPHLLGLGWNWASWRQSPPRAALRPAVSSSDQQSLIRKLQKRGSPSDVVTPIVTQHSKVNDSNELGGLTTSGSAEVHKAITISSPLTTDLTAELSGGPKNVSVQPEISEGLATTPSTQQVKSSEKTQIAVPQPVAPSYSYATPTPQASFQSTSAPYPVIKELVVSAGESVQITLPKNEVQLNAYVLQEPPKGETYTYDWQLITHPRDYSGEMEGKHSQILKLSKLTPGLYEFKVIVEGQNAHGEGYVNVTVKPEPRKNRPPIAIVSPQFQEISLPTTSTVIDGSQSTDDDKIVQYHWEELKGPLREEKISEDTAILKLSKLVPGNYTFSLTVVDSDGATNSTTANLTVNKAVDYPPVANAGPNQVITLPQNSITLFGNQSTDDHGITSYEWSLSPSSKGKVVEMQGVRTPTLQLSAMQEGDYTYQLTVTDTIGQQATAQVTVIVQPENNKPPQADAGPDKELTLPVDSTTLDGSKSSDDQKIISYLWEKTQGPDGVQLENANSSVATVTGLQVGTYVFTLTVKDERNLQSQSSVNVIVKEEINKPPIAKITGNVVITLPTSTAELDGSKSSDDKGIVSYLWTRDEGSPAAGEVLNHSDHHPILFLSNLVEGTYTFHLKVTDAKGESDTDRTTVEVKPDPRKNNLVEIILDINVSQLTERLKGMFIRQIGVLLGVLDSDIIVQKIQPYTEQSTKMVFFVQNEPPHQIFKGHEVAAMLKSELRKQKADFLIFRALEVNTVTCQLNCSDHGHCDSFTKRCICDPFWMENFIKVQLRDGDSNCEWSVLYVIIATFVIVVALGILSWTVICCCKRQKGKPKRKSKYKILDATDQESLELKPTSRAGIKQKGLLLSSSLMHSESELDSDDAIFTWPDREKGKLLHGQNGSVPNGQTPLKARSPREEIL
Method: Briefly, a transduction assay was performed in that HEK 293T cells were transfected via calcium phosphate transfection with a plasmid expressing ALPL, an AAVR positive control, or a pCMV6 negative control (250 ng or 500 ng of plasmid). AAVR is a universal AAV entry factor involved in AAV transduction. […] At 24-hours post-transduction, GFP expression and luciferase activity were measured to quantify and observe AAV cellular transduction. […] The TTM-002, TTM-006, TTM-018, and TTM-019 capsid variants all comprised the SPH motif immediately subsequent to position 455, numbered relative to SEQ ID NO: 138 and a positive residue in one of the next three residues subsequent to the SPH motif.

[1] = target: T2, isoform 2 (alkaline phosphatase, placental (ALPP)) (Homo sapiens, UniProt P05187); assay: Transduction assay in HEK 293T cells expressing isoform 2; type: cell-based; details: for Luciferase Activity (RLU): Table 30, Isoform 2 transfected cells; for increase in transduction in cells expressing isoform 2: luciferase activity (RLU)
T2 construct: expressed in transfected cells; host or cells: HEK 293T
T2 sequence (P05187 23-506): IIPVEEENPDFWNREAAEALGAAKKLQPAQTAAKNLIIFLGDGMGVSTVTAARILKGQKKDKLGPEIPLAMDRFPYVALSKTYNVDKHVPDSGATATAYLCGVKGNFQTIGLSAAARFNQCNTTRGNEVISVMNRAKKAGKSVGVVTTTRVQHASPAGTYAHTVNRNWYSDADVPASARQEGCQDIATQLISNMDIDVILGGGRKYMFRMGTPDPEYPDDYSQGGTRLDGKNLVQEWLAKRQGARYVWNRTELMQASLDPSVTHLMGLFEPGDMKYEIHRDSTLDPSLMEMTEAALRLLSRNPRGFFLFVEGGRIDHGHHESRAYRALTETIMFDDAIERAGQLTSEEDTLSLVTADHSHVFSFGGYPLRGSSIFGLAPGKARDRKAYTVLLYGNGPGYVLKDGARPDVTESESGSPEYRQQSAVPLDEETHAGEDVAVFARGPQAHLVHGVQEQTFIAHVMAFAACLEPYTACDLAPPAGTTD
Excerpt: (§1) Three isoforms of ALPL exist, isoform 1 (Alkaline phosphatase, placental-like 2 (ALPPL2), NM_031313, which is incorporated by reference herein), isoform 2 (alkaline phosphatase, placental (ALPP), NM_001632, which is incorporated by reference herein), and isoform 3 (alkaline phosphatase, intestinal (ALPLI), NM_001631, which is incorporated by reference herein), that can also be expressed on cell surfaces via a GPI-anchor. Isoform 1 is 56.25% identical and 72.54% similar (gaps: 4.17%) to ALPL, isoform 2 is 54.96% identical and 71.37% similar (gaps: 2.29%) to ALPL, and isoform 3 is 55.98% identical and 72.11% similar (gaps: 3.04%) to ALPL. The transduction assay described above was repeated with the three isoforms. HEK 293T cells were transfected via calcium phosphate transfection with a plasmid expressing ALPL, isoform 1 of ALPL, isoform 2 of ALPL, isoform 3 of ALPL, an AAVR positive control, or a pCMV6 negative control. […] At 24-hours post-transduction, luciferase activity (RLU) was measured to quantify AAV cellular transduction.

brain = assay: Second cross-species screen, synthetic library passage 3 in BALB/c mice; type: in vivo; details: for Fold enrichment over AAV9 in BALB/c: third passage (P3)
Method: There were approximately 500 variants in this synthetic library. This synthetic library was then injected back into both strains of mice (C57Bl/6 and BALB/c; passage 3). RNA was recovered from the mouse brains, RT-PCR amplification was performed, and fold-enrichment relative to wild-type AAV9 was calculated by NGS analysis, which is provided in Table 11.

[2] = target: T3, isoform 3 (alkaline phosphatase, intestinal (ALPLI)) (Homo sapiens, UniProt P09923); assay: Transduction assay in HEK 293T cells expressing isoform 3; type: cell-based; details: for Luciferase Activity (RLU): Table 30, Isoform 3 transfected cells; for increase in transduction in cells expressing isoform 3: luciferase activity (RLU)
T3 construct: expressed in transfected cells; host or cells: HEK 293T
T3 sequence (P09923 20-503): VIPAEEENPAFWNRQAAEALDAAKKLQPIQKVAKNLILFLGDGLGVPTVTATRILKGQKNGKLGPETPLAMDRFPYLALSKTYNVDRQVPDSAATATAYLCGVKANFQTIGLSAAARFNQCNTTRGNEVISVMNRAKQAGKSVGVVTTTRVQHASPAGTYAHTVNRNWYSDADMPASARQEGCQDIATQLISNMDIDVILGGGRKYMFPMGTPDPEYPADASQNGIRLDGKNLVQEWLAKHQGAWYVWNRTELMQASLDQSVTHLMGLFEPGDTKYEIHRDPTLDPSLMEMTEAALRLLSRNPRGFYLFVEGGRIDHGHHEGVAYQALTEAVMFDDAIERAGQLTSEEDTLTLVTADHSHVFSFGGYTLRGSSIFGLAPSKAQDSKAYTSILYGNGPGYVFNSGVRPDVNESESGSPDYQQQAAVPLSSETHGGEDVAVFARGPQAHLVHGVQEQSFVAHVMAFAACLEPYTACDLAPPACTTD
Excerpt: as §1

[3] = P3, average of BALB/c and C57Bl/6

AAV9: wild-type AAV9 control capsid [reference compound]
Luciferase Activity (fold change relative to pCMV6 transfected cells) (AAVR; Table 27): 4.3 fold | Luciferase Activity (fold change relative to pCMV6 transfected cells) (AAVR; Table 28): 14 fold | Fold change in luciferase activity relative to the pCMV6 control cells (AAVR): 4.9 fold

B1: TTM-001: AAV9 capsid variant comprising SPHSKA (SEQ ID NO: 941) in loop IV (protein)
chain 1: MAADGYLPDWLEDNLSEGIREWWALKPGAPQPKANQQHQDNARGLVLPGYKYLGPGNGLDKGEPVNAADAAALEHDKAYDQQLKAGDNPYLKYNHADAEFQERLKEDTSFGGNLGRAVFQAKKRLLEPLGLVEEAAKTAPGKKRPVEQSPQEPDSSAGIGKSGAQPAKKRLNFGQTGDTESVPDPQPIGEPPAAPSGVGSLTMASGGGAPVADNNEGADGVGSSSGNWHCDSQWLGDRVITTSTRTWALPTYNNHLYKQISNSTSGGSSNDNAYFGYSTPWGYFDFNRFHCHFSPRDWQRLINNNWGFRPKRLNFKLFNIQVKEVTDNNGVKTIANNLTSTVQVFTDSDYQLPYVLGSAHEGCLPPFPADVFMIPQYGYLTLNDGSQAVGRSSFYCLEYFPSQMLRTGNNFQFSYEFENVPFHSSYAHSQSLDRLMNPLIDQYLYYLSKTINGSGSPHSKAQNQQTLKFSVAGPSNMAVQGRNYIPGPSYRQQRVSTTVTQNNNSEFAWPGASSWALNGRNSLMNPGPAMASHKEGEDRFFPLSGSLIFGKQGTGRDNVDADKVMITNEEEIKTTNPVATESYGQVATNHQSAQAQAQTGWVQNQGILPGMVWQDRDVYLQGPIWAKIPHTDGNFHPSPLMGGFGMKHPPPQILIKNTPVPADPPTAFNKDKLNSFITQYSTGQVSVEIEWELQKENSKRWNPEIQYTSNYYKSNNVEFAVNTEGVYSEPRPIGTRYLTRNL
chain 2: GSGSPHSKAQNQQT
Luciferase Activity (fold change relative to pCMV6 transfected cells) (AAVR; Table 27): 2.4 fold | Luciferase Activity (RLU) (AAVR): 13,981 RLU | Luciferase Activity (RLU) [1]: 7,456 RLU | increase in transduction in cells expressing isoform 2 [1]: did not occur | Average fold enrichment over AAV9 (brain; [3]): 63.1 fold | Average fold enrichment over AAV9 (brain; P3, average of BALB/c and C57Bl/6, listed as GSGSPHSKAQNQQT): 63.083 fold | Fold enrichment over AAV9 in BALB/c (brain): 60.312 fold | Luciferase Activity (RLU) [2]: 3,300 RLU | increase in transduction in cells expressing isoform 3 [2]: did not occur

B2: TTM-002: AAV9 capsid variant comprising HDSPHK (SEQ ID NO: 2) in loop IV (protein)
chain 1: MAADGYLPDWLEDNLSEGIREWWALKPGAPQPKANQQHQDNARGLVLPGYKYLGPGNGLDKGEPVNAADAAALEHDKAYDQQLKAGDNPYLKYNHADAEFQERLKEDTSFGGNLGRAVFQAKKRLLEPLGLVEEAAKTAPGKKRPVEQSPQEPDSSAGIGKSGAQPAKKRLNFGQTGDTESVPDPQPIGEPPAAPSGVGSLTMASGGGAPVADNNEGADGVGSSSGNWHCDSQWLGDRVITTSTRTWALPTYNNHLYKQISNSTSGGSSNDNAYFGYSTPWGYFDFNRFHCHFSPRDWQRLINNNWGFRPKRLNFKLFNIQVKEVTDNNGVKTIANNLTSTVQVFTDSDYQLPYVLGSAHEGCLPPFPADVFMIPQYGYLTLNDGSQAVGRSSFYCLEYFPSQMLRTGNNFQFSYEFENVPFHSSYAHSQSLDRLMNPLIDQYLYYLSKTINGHDSPHKSGQNQQTLKFSVAGPSNMAVQGRNYIPGPSYRQQRVSTTVTQNNNSEFAWPGASSWALNGRNSLMNPGPAMASHKEGEDRFFPLSGSLIFGKQGTGRDNVDADKVMITNEEEIKTTNPVATESYGQVATNHQSAQAQAQTGWVQNQGILPGMVWQDRDVYLQGPIWAKIPHTDGNFHPSPLMGGFGMKHPPPQILIKNTPVPADPPTAFNKDKLNSFITQYSTGQVSVEIEWELQKENSKRWNPEIQYTSNYYKSNNVEFAVNTEGVYSEPRPIGTRYLTRNL
chain 2: GHDSPHKSGQNQQT
Luciferase Activity (fold change relative to pCMV6 transfected cells) (AAVR; Table 27): 4.1 fold | Luciferase Activity (RLU) (AAVR): 11,261 RLU | Fold change in luciferase activity relative to the pCMV6 control cells (AAVR): 7.3 fold | transduction in cells expressing the AAVR control (AAVR; compared with ALPL expression): did not result in the same increase in transduction | Luciferase Activity (RLU) [1]: 3,465 RLU | increase in transduction in cells expressing isoform 2 [1]: did not occur | Average fold enrichment over AAV9 (brain; [3]): 66.8 fold | Average fold enrichment over AAV9 (brain; P3, average of BALB/c and C57Bl/6, listed as GHDSPHKSGQNQQT): 66.792 fold | Fold enrichment over AAV9 in BALB/c (brain): 82.460 fold | Luciferase Activity (RLU) [2]: 2,074 RLU | increase in transduction in cells expressing isoform 3 [2]: did not occur
